Test results taken from patent CN111349168A (DONGGUAN PENGZHI BIOTECHNOLOGY CO LTD, dated 2020).

Biological target: T1, CKMB(PAJ18) (human, UniProt P06732 1-381; P12277 1-381)
T1 construct: Antigen reagent named only as CKMB(PAJ18); Its source and construct are not described; also called 杂化型肌酸激酶同工酶; CKMB抗原
Assay: biolayer interferometry, antibody captured on AMC sensor, CKMB in solution

T1 sequence (P06732 whole entry, chain 1 of 2): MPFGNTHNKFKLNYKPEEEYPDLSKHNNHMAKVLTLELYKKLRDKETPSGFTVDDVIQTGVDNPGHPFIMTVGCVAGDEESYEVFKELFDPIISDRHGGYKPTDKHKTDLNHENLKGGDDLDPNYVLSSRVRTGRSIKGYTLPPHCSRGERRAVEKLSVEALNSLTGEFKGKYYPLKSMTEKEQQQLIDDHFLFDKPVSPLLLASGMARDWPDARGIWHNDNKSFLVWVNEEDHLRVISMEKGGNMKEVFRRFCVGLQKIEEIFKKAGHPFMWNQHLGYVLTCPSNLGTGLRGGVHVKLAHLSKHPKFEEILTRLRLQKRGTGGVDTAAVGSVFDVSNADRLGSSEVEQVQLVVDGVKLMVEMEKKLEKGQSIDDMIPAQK
T1 sequence (P12277 whole entry, chain 2 of 2): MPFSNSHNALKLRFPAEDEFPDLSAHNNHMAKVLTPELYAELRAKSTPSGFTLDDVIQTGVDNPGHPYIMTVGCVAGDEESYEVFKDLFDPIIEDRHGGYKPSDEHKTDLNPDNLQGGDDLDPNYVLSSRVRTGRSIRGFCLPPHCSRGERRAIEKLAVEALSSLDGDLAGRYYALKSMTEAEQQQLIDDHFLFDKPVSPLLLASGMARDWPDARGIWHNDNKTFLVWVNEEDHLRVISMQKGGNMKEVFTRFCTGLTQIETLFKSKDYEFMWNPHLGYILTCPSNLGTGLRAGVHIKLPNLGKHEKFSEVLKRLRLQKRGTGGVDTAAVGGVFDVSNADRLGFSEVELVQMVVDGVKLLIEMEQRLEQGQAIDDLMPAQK

B1: Anti-CKMB 10C5 recombinant antibody (WT) (antibody, V domains shown)
VH: DVQLQESGPGLVKPSQTMSLTCTVTGVSITTGTDRWSWIRQFPGNKLEWIGYIFYSGTLTYNPSVTSRTTITRDTSKNQFFLEMNSLTAEDTATYYCARERTYYPYGYFDVFGTGTTVTVSS
VL: DIQMNQSPSSLSASLGDTITITCHGSNNINIWLSWYQQKPGNTPKLLIYKGSDIHTGVSSRFSGSGSGTAFTLTISSLQPEDIATYYCQQAQSYAWTWGGGTKLEIK
For B1, the Kd was 77.6 nM, the koff was 0.00512 s⁻¹ and the kon was 66000 M⁻¹ s⁻¹.
